Test results: the MegaScale stability set (Tsuboyama et al. 2023)

B1: r4_43_TrROS_Hall (parent)
chain: DLVTIKVPLENLEEIKKAAEKAGFKIVSISYDKENKEVTIVIEKKK
B2: r11_951_TrROS_Hall (parent)
chain: KKKYVIKVYFEDTGKEVEIEAESKEEALEAAKRLAEELGLKIKKVEIYP

Variants of: B1
Test: folding stability dG (cDNA display proteolysis); higher = more stable
Details: PBS, room temperature

Row | Variant | folding stability dG
1 | E10Q | 3.52 kcal/mol
2 | E10L | 3.59 kcal/mol
3 | E10G | 3.58 kcal/mol
4 | E10F | 3.75 kcal/mol
5 | E13D | 3.64 kcal/mol
6 | E34T | 3.77 kcal/mol
7 | F24I | 2.52 kcal/mol
8 | F24G | 2.74 kcal/mol
9 | F24Q | 2.5 kcal/mol
10 | V27R | 3.96 kcal/mol
11 | V27C | 3.64 kcal/mol
12 | V27H | 3.96 kcal/mol
13 | V27K | 3.96 kcal/mol
14 | I5L | 4.01 kcal/mol
15 | I5K | 3.27 kcal/mol
16 | I5P | 1.48 kcal/mol
17 | I5H | 3.23 kcal/mol
18 | I5D | 2.34 kcal/mol
19 | I5M | 3.79 kcal/mol
20 | A19D | 1.76 kcal/mol
21 | A19E | 2.89 kcal/mol
22 | D32S | 4.21 kcal/mol
23 | D32E | 3.62 kcal/mol

Row | Variant | folding stability dG
24 | D32N | 4.06 kcal/mol
25 | D32A | 3.54 kcal/mol
26 | D32R | 2.93 kcal/mol
27 | I40F | 3.93 kcal/mol
28 | T4I | 3.54 kcal/mol
29 | K44L | 3.96 kcal/mol
30 | K44S | 3.49 kcal/mol
31 | A18Y | 3.84 kcal/mol
32 | E37D | 3.49 kcal/mol
33 | E37T | 3.88 kcal/mol
34 | E37W | 3.92 kcal/mol
35 | E37H | 3.86 kcal/mol
36 | E37M | 3.64 kcal/mol
37 | K45W | 4.49 kcal/mol
38 | K45F | 4.41 kcal/mol
39 | K45P | 3.64 kcal/mol
40 | K36W | 3.66 kcal/mol
41 | K36C | 3.19 kcal/mol
42 | K36L | 3.71 kcal/mol
43 | K36H | 3.4 kcal/mol
44 | K33P | 2.94 kcal/mol
45 | K33V | 3.73 kcal/mol
46 | K33R | 3.93 kcal/mol

Row | Variant | folding stability dG
47 | K16I | 3.9 kcal/mol
48 | K16Q | 3.57 kcal/mol
49 | K16D | 2.66 kcal/mol
50 | K16N | 3.35 kcal/mol
51 | K16C | 3.47 kcal/mol
52 | K16M | 3.58 kcal/mol
53 | I29V | 3.67 kcal/mol
54 | K21N | 3.42 kcal/mol
55 | K21W | 4.37 kcal/mol
56 | K21S | 3.93 kcal/mol
57 | K21H | 3.78 kcal/mol
58 | K21V | 3.93 kcal/mol
59 | K21E | 2.94 kcal/mol
60 | I15N | 3.08 kcal/mol
61 | N11H | 3.83 kcal/mol
62 | N11A | 3.83 kcal/mol
63 | N11Y | 4.11 kcal/mol
64 | N11R | 4.15 kcal/mol
65 | T39D | 3.21 kcal/mol
66 | T39H | 3.47 kcal/mol
67 | T39N | 3.14 kcal/mol
68 | E20A | 3.68 kcal/mol
69 | E20M | 3.72 kcal/mol

Row | Variant | folding stability dG
70 | E20G | 3.43 kcal/mol
71 | D1A | 3.81 kcal/mol
72 | D1G | 3.47 kcal/mol
73 | D1V | 4 kcal/mol
74 | D1Y | 3.87 kcal/mol
75 | K25G | 2.89 kcal/mol
76 | E14A | 3.78 kcal/mol
77 | L9W | 3.92 kcal/mol
78 | L9D | 3.42 kcal/mol
79 | L9V | 3.6 kcal/mol
80 | Y31W | 3.55 kcal/mol
81 | I26K | 1.31 kcal/mol
82 | V38Q | 1.74 kcal/mol
83 | V38W | 4.33 kcal/mol
84 | V38P | 1.79 kcal/mol
85 | V38H | 2.85 kcal/mol
86 | V38S | 3.12 kcal/mol
87 | V41L | 3.91 kcal/mol
88 | E43A | 3.71 kcal/mol
89 | E43W | 4.7 kcal/mol
90 | E43D | 3.9 kcal/mol
91 | V7H | 3.12 kcal/mol
92 | V7A | 3.81 kcal/mol

Row | Variant | folding stability dG
93 | V7Y | 3.24 kcal/mol
94 | G23V | 2.78 kcal/mol
95 | G23P | 2.92 kcal/mol
96 | G23I | 2.98 kcal/mol
97 | N35I | 3.52 kcal/mol
98 | N35L | 3.47 kcal/mol
99 | N35A | 3.24 kcal/mol
100 | A22Q | 3.62 kcal/mol
101 | A22I | 3.67 kcal/mol
102 | K17G | 3.73 kcal/mol
103 | K46G | 3.38 kcal/mol
104 | K46R | 3.68 kcal/mol
105 | K6V | 3.5 kcal/mol
106 | K6H | 3.71 kcal/mol
107 | K6Y | 3.48 kcal/mol
108 | P8S | 3.49 kcal/mol
109 | P8L | 3.95 kcal/mol
110 | S30H | 3.68 kcal/mol
111 | S30Q | 3.47 kcal/mol
112 | S30F | 3.9 kcal/mol
113 | L12K | 3.03 kcal/mol
114 | L12M | 3.77 kcal/mol
115 | L12E | 3.55 kcal/mol

Row | Variant | folding stability dG
116 | V3D | 3.18 kcal/mol
117 | V3I | 3.36 kcal/mol
118 | S28P | 2.51 kcal/mol
119 | S28W | 3.88 kcal/mol
120 | S28F | 3.77 kcal/mol
121 | S28M | 3.28 kcal/mol
122 | S28G | 3.53 kcal/mol
123 | S28R | 3.88 kcal/mol
124 | I42S | 2.75 kcal/mol
125 | I42V | 3.46 kcal/mol
126 | I42M | 3.85 kcal/mol
127 | I42T | 3.03 kcal/mol
128 | L2H | 3.43 kcal/mol
129 | L2P | 3.23 kcal/mol
130 | L2I | 3.13 kcal/mol
131 | L2A | 3.4 kcal/mol
132 | L2W | 3.78 kcal/mol
133 | L2D | 3.35 kcal/mol

Variants of: B2
Test: as above
Details: PBS, room temperature

Row | Variant | folding stability dG
134 | F10C | 3.67 kcal/mol
135 | F10G | 3.16 kcal/mol
136 | F10D | 2.86 kcal/mol
137 | F10P | 2.07 kcal/mol
138 | F10Y | 3.94 kcal/mol
139 | F10E | 2.52 kcal/mol
140 | F10W | 4.44 kcal/mol
141 | F10R | 1.98 kcal/mol
142 | F10Q | 2.23 kcal/mol
143 | F10A | 2.98 kcal/mol
144 | F10M | 3.73 kcal/mol
145 | F10I | 3.28 kcal/mol
146 | F10L | 3.94 kcal/mol
147 | F10V | 2.98 kcal/mol
148 | F10H | 2.56 kcal/mol
149 | F10N | 2.58 kcal/mol
150 | F10T | 3.32 kcal/mol

Row | Variant | folding stability dG
151 | F10S | 3.13 kcal/mol
152 | F10K | 1.65 kcal/mol
153 | E11D | 4.5 kcal/mol
154 | E11G | 4.49 kcal/mol
155 | E11L | 4.92 kcal/mol
156 | E11A | 4.58 kcal/mol
157 | E11H | 4.83 kcal/mol
158 | E11I | 4.86 kcal/mol
159 | E11F | 4.94 kcal/mol
160 | E11K | 4.64 kcal/mol
161 | E11N | 4.67 kcal/mol
162 | E11C | 4.63 kcal/mol
163 | E11M | 4.8 kcal/mol
164 | K2R | 4.48 kcal/mol
165 | K2L | 4.61 kcal/mol
166 | K2I | 4.36 kcal/mol
167 | K2C | 4.46 kcal/mol
